From the DeepSol protein solubility set come the findings set out here.

The data set in a line: soluble on expression in E. coli; label from the status in PepcDB or PDB records.
Regarding “RQLALEAKGETPSAVTRLSVVAKSEPQDEQSRSQSARRIILSRLKAGEVDLLEEELGHLTTLTDVVKGADSLSAILPGDIAEDDITAVLCFVIEADQITFETVEVSPKISTPPVLKLAAEQAPTGRVEREKTTR”, the “soluble on expression in E. coli” value was “soluble”.

Take “MGSDKIHHHHHHMPEHLDFTLFQPKGRLASIVQGVWSTSVAIHSSNNIKRWLHSDACSGFLFNLSEPIQLNDLSISTGGVLLPVSKQAQTITLPPGAVVVGVRFHPAMSFAILGNIYQQATQIKKSETNILSLQTLGNQLEQAKGHYARIVVFYRWLNTMLLTIDNIPAPLMSALKALEDKKSPGELSNHVLLSQRQIERHFQKWLNMTPKYYQRISRVKNALKVLKLHPETALADLALSIGFTDQAHMTREFKYIARITPKHYAQKVIDDKSNALSIIKPKVG”: the “soluble on expression in E. coli” value was “not soluble”.

In the case of “MAHTRSLQMLKAHSTRSALRQPQKKETGTNGNDPSVAPKNAQADSGKDERRGSQAMGWSCFGGCIKDEIFSVFGIGRKIIGRV”, the “soluble on expression in E. coli” value is given as “not soluble”.

On to “MQDEKNFMSGVKENLDVLFTKLEKFLRTETVIGQPIKVGETTLIPIVTVMFGCGTGGGVGDNKGIKGQGGGLGTGARISPDAVLVIKNDDVQMLPVKKGANLSKLIEMVPEIVSKIKIDKENKEKEEVKKEENLEHHHHHH”, for which the “soluble on expression in E. coli” value is “soluble”.

As for “GLGNVDETLEIKQLLNIYRDLQLGHFCAFYQPQKHIDSGGVVAFEALARRVIGKGLYEMPDRFFPILEKYHLIPTLTEVMVRDILTFLMTEDAVLQDITIGVNIPGKMLTDGSFYRLLLSVAEEKQAQHALHRLSVEITEHDLIADFDAAKHEIYKLKSLGIRCALDDFGTGYSGYEYLCEIPFDVVKIDGRYIQSLGKAESSTVILQSMISSIKSLSMQVIAEWVDSDQQYQILQEMGCDLVQGYLVSPA”, the “soluble on expression in E. coli” value is “not soluble”.

With “MGGTSYLIVGNEGNILIDCPALDQTNLNFLRSHGGVRWLFLTHRGAIGRTAEIQQNYGCDILIQEQEAYLLPGLTVTTFTQEFAVTPTAKAIWTPGHSPGSSCLYYNHQGGVLFSGRHLLPNQKGEPVPLRTAKTFHWPRQIKSLQTILETLTPETLQYICPGANTGFLRGKRSIDTAYQRLASLDLKALLQTQPLEHHHHHH”, the “soluble on expression in E. coli” value was “not soluble”.

Take “SLPERGKTETADGEVFLQWLRQSVTDGMLSVNESDSVLHILARFVFVASPDVFYKYTSSAGDAVQDKKQLQKSFEALSVHHSRNGKGLYHYHKYDAPDKSGGFIKVSGYMIETNLIFRKGSCPSDSIWLSPRS”: the “soluble on expression in E. coli” value is on record as “soluble”.

“GAMDENDEGVRGTCEDASLCKRFAVSIGYWHDPYIQHFVRLSKERKAPEINRGYFARVHGVSQLIKAFLRKTECHCQIVNLGAGMDTTFWRLKDEDLLPSKYFEVDFPMIVTRKLHSIKCKPPLSSPILELHSEDTLQMDGHILDSKRYAVIGADLRDLSELEEKLKKCNMNTQLPTLLIAECVLVYMTPEQSANLLKWAANSFERAMFINYEQVNEGKSLESQKERLLSNGWETASAVDMMELYNRLPRAEVSRIESLEFLDEMELLEQLMRHYCLCWATKGGNELGLKEITY”: the “soluble on expression in E. coli” value is “soluble”.

Take “MIVTSLEDLRSRLRAYVSENGLRHTPERYSILEVAYNLKKIFTPDDLFDLTRENGLPVSLSTVYNTLTLLERCGIVLRLPSPETKYQYLMASFAEQCPLLFCTECAQFSTYYRRNVKSILADKDLRPPRFSYRQAIICLYGICDKCRKKQSALKKAADKAAPKKKK”: the “soluble on expression in E. coli” value was “not soluble”.

On to “MPEYSSVTGLEGVKFAPLKKENGFYVATKIIDYPYAINAKVNTETSTEKQYADNKLVDMAVTTGSTKLELEMRDLPMEILEELFGIEETDGIYMFKKNVIAPWVAMSFYGPKANGKNRHVGLVKGRFSLPDDEWKTKEEKTDFQTVKLSAEFMEREQDNAYKVLADEDAPNFNLDKFYEKVFGNAYKNPDSGSDNKSSVDIGKTVLEHHHHHH”, for which the “soluble on expression in E. coli” value is given as “soluble”.

On to “MGSDKIHHHHHHMEPVYFTSPTRGRLTEDEMFADMMQFVDANPEAQYKIIIGSDSQARVRTCFVTAVIVHQVGRGARYYYRKKYQRKITSLRQKIFYETALSLETASFIAQRLAANGHADLNVEIHLDIGPNGETRDLIREIVGMVVGSGFAAKIKPYSCGASKVADKYTKSG”, for which the “soluble on expression in E. coli” value is “not soluble”.

In the case of “MGSDKIHHHHHHMAVQAKQCKAVLLCGYYGEHNLGDDALLQVLLEELPSSLQPWITANDSNVIKGLAPKAQVINRRSLLESIRALFQVQGLILGGGSLLQDSTSFKSLIYYLILIVIAQQRGVPVLLWGQGLGPFRYRLSRWMVRRVLRRVQAISWRDPDSFQLAEQWCLPSPMLMAPDPVWQLPSRSWEGGQAVVLCWRSTSMLDRFGWQHLLQALEMILTDIDAPVHWLAFHQRQDEELFRKLDRQGLISSSLRSRSHSFAFDSLTEVMNQFTMARLVLPMRLHALILAQLAGSPTVALSYDPKVSSAALMANVPFTDLQSLPDIRLLAGLWGQVLDVPPDLGKIEAIRKHASQHSKIIDKVFN”, the “soluble on expression in E. coli” value was “not soluble”.

In the case of “MGSDKIHHHHHHMAHVNTNGIQIEYEVFGKRTNPTIVLIAGNGAQLNFWESDFCEMLAQHNLQVIRFDNRDAGLSTKFDAAGIPDMSKIYQAAQEGKPIKTAYTLEDMADDVAGLLDALEIKKAHICGASMGGMIAQVFAYRHPLRICSLISIMSSTGNPNNPKISQETLEIVTATPPNQRGAYIEYTVHMWKKLWSKGFPFEEERAIRYTEESYDRCYYPQGAVRQNAALVANGDRRKYLSLLRVPTLVIHGTADPLIPVEAGKDTARTIPNAKLLLIEGMGHDMPKGTWKCIVEAIVSLVRDTSHSCWR”, the “soluble on expression in E. coli” value is given as “not soluble”.

On to “MDYLNYEEIQSLKNSLLHNIKHTYISRYMILTALYTGMRPGEIAVLTWSDIDFKNQTININKSYNHDKGRVDNYDSSEIDKSTKNTNSVRIIKVDKKFLDILSQLKQNDHEKIFIGKDGTIPTSNAVNKVWRKQLEKLNIDKPSFHFHSVRHTHVALLPFKGVPLYAISKRLGHANMSTTAKKYAYMLDELKQQVRLEHHHHHH”, for which the “soluble on expression in E. coli” value is on record as “soluble”.

For “PVSWVLQQAPTVKGLDIQGAHGSVWQGQASSVRWQRQNLGQVNWDFQWSSLFTGKAEFSVRFGRGSDMNIRGRGLVGYSLSDGLYAENLVASIPASKAVEQARLPVPIGVDGQLELNIRHATYAAPWCKTGEGTLVWSASGIQSPVGSLELGPVIADLKCQDSVLTASGEQTSTQVSSAFSAEMMPNQRYSTKAWFKPGADFPSSMGEQLKWLGQPNAQGQYEFDYKGRF”, the “soluble on expression in E. coli” value is “not soluble”.

Turning to “GSHMENYHAGPGISKSQLDDIADTPALYLWRKNAPVDTTKTKTLDLGTAFHCRVLELEEFSNRFIVAPEFNRRTNAGKEEEKAFLMECASTGKTVITAEEGRKIELMYQSVMALPLGQWLVESAGHAESSIYWEDPETGILCRCRPDKIIPEFHWIMDVKTTADIQRFKTAYYDYRYHVQDAFYSDGYEAQFGVQPTFVFLVASTTIECGRYPVEIFMMGEEAKLAGQQEYHRNLRTLSDCLNTDEWPAIKTLSLPRWAKEYAND”, the “soluble on expression in E. coli” value is given as “soluble”.

Consider “MAIGGWIKLYRTIQDHWIWENPQYLKWWLDLIFMANHQDRKILFDGELKTVKVGERITSEKKLSERWEVSRNTVRKFLDLLVKDDMIELSRSRQNGTWYKVSNYAEYQNFSEIKKQRTEQRREQQAAHQTEQRTEHKQEPKEPKNLRNNNNNNKGAFIRSIWENNGFGLMSSKTMTDFDYWISDFEKIGASQKEAEQLIVKAIEIAIDANARNYNYINAILKDWEQRGFKSVEEREAARKQKKTTKKQKSNTGHSDYDDLGF”, for which the “soluble on expression in E. coli” value is “not soluble”.

As for “MKRVVLYIKDKCPHCKDAQRYLDSKGIKYRLCNAKMERGRKELDALGARSVPVLKIGDRLMIGWNHTNFERIYSSKD”, the “soluble on expression in E. coli” value was “not soluble”.

With “MAVGAALPPIPEGAPVLIAGPTASGKSALALEIAERFGGVIVNADASQVYDCWRAISARPSPEEEARAPHLLYGHLPYDAPYSAGHWLREVTPLLDGTARPIIVGGTGLYFTALTEGMADIPATPPDVRAEADTLPLDRLLAGIDPATAAGLDRNNRARVQRAWEVERATGRALHLWQADTPPPPLPLARTVPLVLEVDKLWLWDRIARRFDQMLDQGALDEVAAMAARYDPALPAFKAIGVPELMAHLRGEITLDAARERASIATRQYAKRQRSWFRARMGDWHRLPVGGLEHHHHHH”, the “soluble on expression in E. coli” value is listed as “not soluble”.

Turning to “LYIRGLQPGTTDQDLVKLCQPYGKIVSTKAILDKTTNKCKGYGFVDFDSPSAAQKAVTALKASGVQAQMAKQ”, the “soluble on expression in E. coli” value is “soluble”.
